Read-outs that look alike come from different tables or passages of the source.
Legend:
[1] = target: MOP receptor stably expressed in CHO-K1 cells (plasma membranes) (UniProt P35372); assay: radioligand binding
[2] = target: MOP receptor stably expressed in CHO-K1 cells (plasma membranes) (UniProt P35372); assay: radioligand binding; remark: listed apart in the source

Chain of UniProt P35372 (P35372 whole entry): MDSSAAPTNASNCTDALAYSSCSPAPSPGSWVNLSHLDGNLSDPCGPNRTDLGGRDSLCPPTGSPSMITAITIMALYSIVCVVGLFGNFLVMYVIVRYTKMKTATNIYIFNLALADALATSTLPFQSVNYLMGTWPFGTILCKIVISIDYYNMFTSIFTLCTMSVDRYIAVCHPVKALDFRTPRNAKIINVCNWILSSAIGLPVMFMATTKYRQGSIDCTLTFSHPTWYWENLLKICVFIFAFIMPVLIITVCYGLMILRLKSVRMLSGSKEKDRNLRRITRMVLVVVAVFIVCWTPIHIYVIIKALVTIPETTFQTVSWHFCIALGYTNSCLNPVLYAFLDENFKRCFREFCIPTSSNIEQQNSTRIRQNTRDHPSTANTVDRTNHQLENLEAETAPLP

- Ki [1]: 6.7 nM
- Ki [2]: 11 nM
Substance: DAMGO, [D-Ala^2, NMePHe^4, Gly^5-ol]enkephalin (peptide)

Source: article PMC2650857
